Laboratory results published in the array DNA melting data of Ke et al..

Assay: melting temperature; melt of duplexes
Conditions: sodium 0.0675 M; strand 1 µM

| Substance | Tm |
| --- | --- |
| CGACGTGCATTATGTGCTG+CAGCACATGAGGCACGTCG ((((((((.(.((((((((+)))))))).).)))))))) | 54 °C |
| CGACGTGCATTATGTGCTG+CAGCACATGATGCACGTCG ((((((((((.((((((((+)))))))).)))))))))) | 58.1 °C |
| CGACGTGCATTATGTGCTG+CAGCACATGCAGCACGTCG ((((((((...((((((((+))))))))...)))))))) | 48.7 °C |
| CGACGTGCATTATGTGCTG+CAGCACATGGTGCACGTCG (((((((((..((((((((+))))))))..))))))))) | 51.8 °C |
| CGACGTGCATTATGTGCTG+CAGCACATGTTGCACGTCG (((((((((..((((((((+))))))))..))))))))) | 52.2 °C |
| CGACGTGCATTATGTGCTG+CAGCACATTAAGCACGTCG ((((((((.(.((((((((+)))))))).).)))))))) | 50.3 °C |
| CGACGTGCATTATGTGCTG+CAGCACATTACGCACGTCG ((((((((.(.((((((((+)))))))).).)))))))) | 49.3 °C |
| CGACGTGCATTATGTGCTG+CAGCACATTAGGCACGTCG ((((((((.(.((((((((+)))))))).).)))))))) | 51.9 °C |
| CGACGTGCATTATGTGCTG+CAGCACATTCCGCACGTCG ((((((((...((((((((+))))))))...)))))))) | 47.5 °C |
| CGACGTGCATTATGTGCTG+CAGCACATTGAGCACGTCG ((((((((...((((((((+))))))))...)))))))) | 49.5 °C |
| CGACGTGCATTATGTGCTG+CAGCACATTTCGCACGTCG ((((((((...((((((((+))))))))...)))))))) | 48.3 °C |
| CGACGTGCCAAATGTGCTG+CAGCACATAAAGCACGTCG ((((((((...((((((((+))))))))...)))))))) | 49.9 °C |
| CGACGTGCCAAATGTGCTG+CAGCACATAACGCACGTCG ((((((((...((((((((+))))))))...)))))))) | 47.7 °C |
| CGACGTGCCAAATGTGCTG+CAGCACATAATGCACGTCG ((((((((...((((((((+))))))))...)))))))) | 48.2 °C |
| CGACGTGCCAAATGTGCTG+CAGCACATACGGCACGTCG (((((((((..((((((((+))))))))..))))))))) | 53.2 °C |
| CGACGTGCCAAATGTGCTG+CAGCACATACTGCACGTCG ((((((((...((((((((+))))))))...)))))))) | 47.4 °C |
| CGACGTGCCAAATGTGCTG+CAGCACATAGAGCACGTCG ((((((((...((((((((+))))))))...)))))))) | 49.1 °C |
| CGACGTGCCAAATGTGCTG+CAGCACATCCGGCACGTCG (((((((((..((((((((+))))))))..))))))))) | 53.3 °C |
| CGACGTGCCAAATGTGCTG+CAGCACATCGAGCACGTCG ((((((((...((((((((+))))))))...)))))))) | 49.6 °C |
| CGACGTGCCAAATGTGCTG+CAGCACATCGCGCACGTCG ((((((((...((((((((+))))))))...)))))))) | 48.2 °C |
| CGACGTGCCAAATGTGCTG+CAGCACATCTAGCACGTCG ((((((((.(.((((((((+)))))))).).)))))))) | 49.3 °C |
| CGACGTGCCAAATGTGCTG+CAGCACATGAAGCACGTCG ((((((((...((((((((+))))))))...)))))))) | 51.2 °C |
| CGACGTGCCAAATGTGCTG+CAGCACATGAGGCACGTCG (((((((((..((((((((+))))))))..))))))))) | 57.3 °C |
| CGACGTGCCAAATGTGCTG+CAGCACATGATGCACGTCG ((((((((...((((((((+))))))))...)))))))) | 50.3 °C |

| Substance | Tm |
| --- | --- |
| CGACGTGCCAAATGTGCTG+CAGCACATGCAGCACGTCG ((((((((...((((((((+))))))))...)))))))) | 52.7 °C |
| CGACGTGCCAAATGTGCTG+CAGCACATGCTGCACGTCG ((((((((...((((((((+))))))))...)))))))) | 48.2 °C |
| CGACGTGCCAAATGTGCTG+CAGCACATGGAGCACGTCG ((((((((...((((((((+))))))))...)))))))) | 52.4 °C |
| CGACGTGCCAAATGTGCTG+CAGCACATGGCGCACGTCG ((((((((...((((((((+))))))))...)))))))) | 51.2 °C |
| CGACGTGCCAAATGTGCTG+CAGCACATGGGGCACGTCG (((((((((..((((((((+))))))))..))))))))) | 56.6 °C |
| CGACGTGCCAAATGTGCTG+CAGCACATGGTGCACGTCG ((((((((...((((((((+))))))))...)))))))) | 48.9 °C |
| CGACGTGCCAAATGTGCTG+CAGCACATTACGCACGTCG ((((((((..(((((((((+)))))))))..)))))))) | 50.5 °C |
| CGACGTGCCAAATGTGCTG+CAGCACATTAGGCACGTCG (((((((((.(((((((((+))))))))).))))))))) | 57.8 °C |
| CGACGTGCCAAATGTGCTG+CAGCACATTGAGCACGTCG ((((((((..(((((((((+)))))))))..)))))))) | 53.9 °C |
| CGACGTGCCAAATGTGCTG+CAGCACATTTAGCACGTCG ((((((((.((((((((((+)))))))))).)))))))) | 54.4 °C |
| CGACGTGCCACATGTGCTG+CAGCACATAAAGCACGTCG ((((((((...((((((((+))))))))...)))))))) | 49.1 °C |
| CGACGTGCCACATGTGCTG+CAGCACATAAGGCACGTCG (((((((((..((((((((+))))))))..))))))))) | 54 °C |
| CGACGTGCCACATGTGCTG+CAGCACATACCGCACGTCG ((((((((...((((((((+))))))))...)))))))) | 46.7 °C |
| CGACGTGCCACATGTGCTG+CAGCACATACGGCACGTCG (((((((((..((((((((+))))))))..))))))))) | 53.4 °C |
| CGACGTGCCACATGTGCTG+CAGCACATACTGCACGTCG ((((((((...((((((((+))))))))...)))))))) | 47.2 °C |
| CGACGTGCCACATGTGCTG+CAGCACATAGGGCACGTCG (((((((((..((((((((+))))))))..))))))))) | 54.7 °C |
| CGACGTGCCACATGTGCTG+CAGCACATAGTGCACGTCG ((((((((...((((((((+))))))))...)))))))) | 46.9 °C |
| CGACGTGCCACATGTGCTG+CAGCACATATTGCACGTCG ((((((((.(.((((((((+)))))))).).)))))))) | 47.4 °C |
| CGACGTGCCACATGTGCTG+CAGCACATCCCGCACGTCG ((((((((...((((((((+))))))))...)))))))) | 46.3 °C |
| CGACGTGCCACATGTGCTG+CAGCACATCGGGCACGTCG (((((((((..((((((((+))))))))..))))))))) | 53.9 °C |
| CGACGTGCCACATGTGCTG+CAGCACATCTGGCACGTCG ((((((((((.((((((((+)))))))).)))))))))) | 55.2 °C |
| CGACGTGCCACATGTGCTG+CAGCACATGCAGCACGTCG ((((((((..(((((((((+)))))))))..)))))))) | 53.6 °C |
| CGACGTGCCACATGTGCTG+CAGCACATGCCGCACGTCG ((((((((..(((((((((+)))))))))..)))))))) | 52 °C |
| CGACGTGCCACATGTGCTG+CAGCACATGGGGCACGTCG (((((((((.(((((((((+))))))))).))))))))) | 63.6 °C |

| Substance | Tm |
| --- | --- |
| CGACGTGCCACATGTGCTG+CAGCACATGGTGCACGTCG ((((((((..(((((((((+)))))))))..)))))))) | 53.2 °C |
| CGACGTGCCACATGTGCTG+CAGCACATTAGGCACGTCG (((((((((..((((((((+))))))))..))))))))) | 54.2 °C |
| CGACGTGCCACATGTGCTG+CAGCACATTCCGCACGTCG ((((((((...((((((((+))))))))...)))))))) | 47.1 °C |
| CGACGTGCCACATGTGCTG+CAGCACATTGCGCACGTCG ((((((((...((((((((+))))))))...)))))))) | 50.5 °C |
| CGACGTGCCACATGTGCTG+CAGCACATTGGGCACGTCG (((((((((..((((((((+))))))))..))))))))) | 55 °C |
| CGACGTGCCACATGTGCTG+CAGCACATTTCGCACGTCG ((((((((.(.((((((((+)))))))).).)))))))) | 47.3 °C |
| CGACGTGCCAGATGTGCTG+CAGCACATAATGCACGTCG ((((((((...((((((((+))))))))...)))))))) | 48.5 °C |
| CGACGTGCCAGATGTGCTG+CAGCACATAGTGCACGTCG ((((((((...((((((((+))))))))...)))))))) | 45.6 °C |
| CGACGTGCCAGATGTGCTG+CAGCACATATCGCACGTCG ((((((((.(.((((((((+)))))))).).)))))))) | 49.1 °C |
| CGACGTGCCAGATGTGCTG+CAGCACATATGGCACGTCG ((((((((((.((((((((+)))))))).)))))))))) | 59.9 °C |
| CGACGTGCCAGATGTGCTG+CAGCACATCAGGCACGTCG (((((((((.(((((((((+))))))))).))))))))) | 59.8 °C |
| CGACGTGCCAGATGTGCTG+CAGCACATCCGGCACGTCG (((((((((.(((((((((+))))))))).))))))))) | 59.2 °C |
| CGACGTGCCAGATGTGCTG+CAGCACATCGAGCACGTCG ((((((((..(((((((((+)))))))))..)))))))) | 56.2 °C |
| CGACGTGCCAGATGTGCTG+CAGCACATCGCGCACGTCG ((((((((..(((((((((+)))))))))..)))))))) | 55.4 °C |
| CGACGTGCCAGATGTGCTG+CAGCACATCTAGCACGTCG ((((((((.((((((((((+)))))))))).)))))))) | 56.8 °C |
| CGACGTGCCAGATGTGCTG+CAGCACATCTCGCACGTCG ((((((((.((((((((((+)))))))))).)))))))) | 55.9 °C |
| CGACGTGCCAGATGTGCTG+CAGCACATCTGGCACGTCG (((((((((((((((((((+))))))))))))))))))) | 66.5 °C |
| CGACGTGCCAGATGTGCTG+CAGCACATGATGCACGTCG ((((((((...((((((((+))))))))...)))))))) | 49.4 °C |
| CGACGTGCCAGATGTGCTG+CAGCACATGCAGCACGTCG ((((((((...((((((((+))))))))...)))))))) | 51.2 °C |
| CGACGTGCCAGATGTGCTG+CAGCACATGCCGCACGTCG ((((((((...((((((((+))))))))...)))))))) | 49.5 °C |
| CGACGTGCCAGATGTGCTG+CAGCACATGGGGCACGTCG (((((((((..((((((((+))))))))..))))))))) | 56.3 °C |
| CGACGTGCCAGATGTGCTG+CAGCACATGTCGCACGTCG ((((((((.(.((((((((+)))))))).).)))))))) | 49.7 °C |
| CGACGTGCCAGATGTGCTG+CAGCACATGTGGCACGTCG ((((((((((.((((((((+)))))))).)))))))))) | 60 °C |
| CGACGTGCCAGATGTGCTG+CAGCACATTTGGCACGTCG ((((((((((.((((((((+)))))))).)))))))))) | 59.3 °C |
